Measured values as given in US20040009177A1 (SERVICES, published 2004).

How the values were obtained:
[1] = molecular target: CX3CR1 on Vero cells (African green monkey); assay: cell-based or functional assay
[2] = molecular target: purified recombinant soluble polyhistidine-tagged G glycoprotein (respiratory syncytial virus) (UniProt P03423); assay: flow cytometry, GHIS on CX3CR1-293 cells with control antibody (68% without)
[3] = molecular target: CX3CR1 on naive mouse spleen leukocytes (mouse) (UniProt Q9Z0D9); assay: cell-based or functional assay
[4] = molecular target: T1, CX3CR1 on CX3CR1-transfected human embryonic kidney cells (293-CX3CR1 cells) (UniProt P49238 1-355); assay: inhibition of G glycoprotein binding to CX3CR1, methods described in the examples (no further detail)
T1 construct: whole, on cells; also called CX3C receptor; CX3CR1-293 cells
T1 sequence (looked up): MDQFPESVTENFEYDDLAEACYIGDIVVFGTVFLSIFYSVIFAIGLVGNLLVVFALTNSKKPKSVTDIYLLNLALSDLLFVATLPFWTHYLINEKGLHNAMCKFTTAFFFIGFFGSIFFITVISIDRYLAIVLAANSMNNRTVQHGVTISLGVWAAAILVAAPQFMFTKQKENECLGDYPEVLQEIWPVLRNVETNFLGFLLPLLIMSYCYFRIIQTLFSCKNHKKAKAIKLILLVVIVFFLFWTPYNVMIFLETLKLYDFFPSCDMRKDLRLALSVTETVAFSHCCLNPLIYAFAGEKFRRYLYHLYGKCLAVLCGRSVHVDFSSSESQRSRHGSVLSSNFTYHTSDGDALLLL

[5] = molecular target: T1, CX3CR1 on CX3CR1-transfected human …; assay: flow cytometry, G glycoprotein on CX3CR1-293 cells with competitor peptide (84% without)
[6] = molecular target: T1, CX3CR1 on CX3CR1-transfected human …; assay: Scatchard analysis; displacement of 1 nM 125I-fractalkine from 293-CX3CR1 cells by unlabeled G glycoprotein, 2 h 37°C with azide; mean±SD of three experiments
[7] = molecular target: purified recombinant soluble polyhistidine-tagged G glycoprotein (respiratory syncytial virus) (UniProt P03423); assay: flow cytometry; inhibition of polyhistidine-tagged G glycoprotein binding to 293-CX3CR1 cells
[8] = molecular target: RSV G glycoprotein, purified from RSV/A2-infected Vero cells (respiratory syncytial virus, A2 strain) (UniProt P03423); assay: flow cytometry; inhibition of G glycoprotein binding to 293-CX3CR1 cells, in the absence of heparin
[9] = molecular target: purified recombinant soluble polyhistidine-tagged G glycoprotein (respiratory syncytial virus) (UniProt P03423); assay: flow cytometry, GHIS on CX3CR1-293 cells with antibody (68% without)
[10] = molecular target: T2, mouse Fkn (mouse) (UniProt O35188); assay: cell-based or functional assay
T2 sequence (looked up): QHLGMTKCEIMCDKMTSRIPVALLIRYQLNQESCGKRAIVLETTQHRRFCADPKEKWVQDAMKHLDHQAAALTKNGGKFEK

[11] = molecular target: RSV G glycoprotein, purified from RSV/A2-infected Vero cells (respiratory syncytial virus, A2 strain) (UniProt P03423); assay: cell-based or functional assay
[12] = molecular target: T1, CX3CR1 on CX3CR1-transfected human …; assay: Scatchard analysis; displacement of 1 nM 125I-fractalkine from 293-CX3CR1 cells by unlabeled Fkn, 2 h 37°C with azide; mean±SD of three experiments

Sequence of CX3CR1 on naive mouse spleen leukocytes (mouse) (Q9Z0D9 whole entry): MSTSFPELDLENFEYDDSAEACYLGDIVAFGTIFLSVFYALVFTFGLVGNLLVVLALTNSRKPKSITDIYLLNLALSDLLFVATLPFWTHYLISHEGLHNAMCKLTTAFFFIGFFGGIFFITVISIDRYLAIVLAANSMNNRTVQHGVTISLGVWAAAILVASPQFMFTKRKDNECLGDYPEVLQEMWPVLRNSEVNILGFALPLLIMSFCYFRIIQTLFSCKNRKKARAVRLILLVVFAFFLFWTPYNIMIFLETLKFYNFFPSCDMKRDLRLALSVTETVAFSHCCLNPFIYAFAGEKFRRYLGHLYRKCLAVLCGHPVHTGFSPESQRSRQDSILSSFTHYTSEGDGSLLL

Molecule: normal rabbit sera
- RSV plaque inhibition (%) on Vero cells; Normal rabbit sera (control) [1]: 6%

Molecule: anti-F glycoprotein monoclonal antibody 131-2A
- percent positive staining of GHIS in the presence of the antibody [2]: 60%

Molecule: mouse Fkn (from UniProt O35188 25-105) (ligand)
- chemotactic index of mouse leukocytes toward G glycoprotein with Fkn as antagonist (chemotactic index) [3]: 1.2
- inhibition of mouse leukocyte chemotaxis toward G glycoprotein by Fkn [3]: 75%

B1: G glycoprotein peptide EYp1, TCAAACKRIPNKK (SEQ ID NO: 5) (peptide)
peptide: TCAAACKRIPNKK
notes: 13-mer variant of RT33 with the motif CAAAC
- percent inhibition [4]: > 90%

Molecule: TCNAACKRIPNKK [peptide TCNAACKRIPNKK (SEQ ID NO: 7)]
- percent inhibition [4]: > 90%

Molecule: TCFAACKRIPNKK [peptide TCFAACKRIPNKK (SEQ ID NO: 11)]
- percent inhibition [4]: > 90%

Molecule: TCDAACKRIPNKK [peptide TCDAACKRIPNKK (SEQ ID NO: 8)]
- percent inhibition [4]: > 90%

Molecule: TCMAACKRIPNKK [peptide TCMAACKRIPNKK (SEQ ID NO: 10)]
- percent inhibition [4]: > 90%

Molecule: TCWAACKRIPNKK [peptide TCWAACKRIPNKK (SEQ ID NO: 6)]
- percent inhibition [4]: > 90%

B2: G glycoprotein peptide RT34 (peptide)
peptide: NKKPGKKTTTKP
notes: synthetic 12-mer C-terminal to the CX3C motif
- percent positive staining of G glycoprotein in the presence of the peptide [5]: 74%

Molecule: VPCSICSNNPTC (synthetic 12-mer, lacks the CX3C motif) [G glycoprotein peptide RT32]
- percent positive staining of G glycoprotein in the presence of the peptide [5]: 72%

B3: RSV G glycoprotein, purified from RSV/A2-infected Vero cells (ligand, respiratory syncytial virus, A2 strain, UniProt P03423 1-298, looked up)
chain: MSKNKDQRTAKTLERTWDTLNHLLFISSCLYKLNLKSVAQITLSILAMIISTSLIIAAIIFIASANHKVTPTTAIIQDATSQIKNTTPTYLTQNPQLGISPSNPSEITSQITTILASTTPGVKSTLQSTTVKTKNTTTTQTQPSKPTTKQRQNKPPSKPNNDFHFEVFNFVPCSICSNNPTCWAICKRIPNKKPGKKTTTKPTKKPTLKTTKKDPKPQTTKSKEVPTTKPTEEPTINTTKTNIITTLLTSNTTGNPELTSQMETFHSTSSEGNPSPSQVSTTSEYPSQPSSPPNTPRQ
notes: Lectin and Q-Sepharose purified; concentration estimated with a molecular weight of 90 kD; also called attachment protein
- Kd [6]: 2.1 nM

Molecule: TCWACKRIPNK [G glycoprotein peptide ?-1, 11-mer variant of RT33 with a deletion of ILE in the CX3C motif]
- percent positive staining of G glycoprotein in the presence of the peptide [5]: 73%

B4: anti-G glycoprotein monoclonal antibody 131-2G (antibody, from another filing, V domains shown)
VH: EVQLQQSGPELVKPGTSVKISCKASGYSFTGFTMNWVKQSHGKNLEWFGLINPFNGNTGYNQKFKGKATLTVDKSSSTAFMELLSLTSEDSAVYYCARSGKSYDYEAWFTYWGQGTLVTVSA
VL: DIVMTQTTLSLPVSLGNQASISCRSSQTIVHTNGNTYLEWYLQKPGQSPKLLIYKVSNRFSGVPDRFSGSGSGTDFILNISRVEAEDLGVYYCFQGSHVPFTFGSGTKLEIKR
- percent inhibition [7]: 80 to 88%
- percent inhibition [8]: 32 to 48%
- percent positive staining of GHIS in the presence of the antibody [9]: 10%
- chemotactic index of mouse leukocytes toward Fkn with anti-G glycoprotein (131-2G) (chemotactic index) [10]: 4.8
- chemotactic index of mouse leukocytes toward G glycoprotein with anti-G glycoprotein (131-2G) (chemotactic index) [11]: 1.1

B5: human fractalkine (R&D Diagnostics) (ligand, UniProt P78423 25-100, looked up)
chain: QHHGVTKCNITCSKMTSKIPVALLIHYQQNQASCGKRAIILETRQHRLFCADPKEQWVKDAMQHLDRQAAALTRNG
notes: also called Fkn; human Fkn
- Kd [12]: 5.8 nM

B6: G glycoprotein peptide RT33 (peptide)
peptide: TCWAICKRIPNK
notes: synthetic 12-mer with the CX3C motif CWAIC
- percent positive staining of G glycoprotein in the presence of the peptide [5]: 48%
